Experimental findings from paper PMC5179221 (2017) are described below.

In the assay the target is NCoR peptide (Homo sapiens, UniProt O75376). The assay can be described thus: fluorescence polarization. (In fluorescence polarisation assays a small probe gives low polarisation when free and higher when bound to something large.)
Sequence of NCoR peptide (O75376 whole entry): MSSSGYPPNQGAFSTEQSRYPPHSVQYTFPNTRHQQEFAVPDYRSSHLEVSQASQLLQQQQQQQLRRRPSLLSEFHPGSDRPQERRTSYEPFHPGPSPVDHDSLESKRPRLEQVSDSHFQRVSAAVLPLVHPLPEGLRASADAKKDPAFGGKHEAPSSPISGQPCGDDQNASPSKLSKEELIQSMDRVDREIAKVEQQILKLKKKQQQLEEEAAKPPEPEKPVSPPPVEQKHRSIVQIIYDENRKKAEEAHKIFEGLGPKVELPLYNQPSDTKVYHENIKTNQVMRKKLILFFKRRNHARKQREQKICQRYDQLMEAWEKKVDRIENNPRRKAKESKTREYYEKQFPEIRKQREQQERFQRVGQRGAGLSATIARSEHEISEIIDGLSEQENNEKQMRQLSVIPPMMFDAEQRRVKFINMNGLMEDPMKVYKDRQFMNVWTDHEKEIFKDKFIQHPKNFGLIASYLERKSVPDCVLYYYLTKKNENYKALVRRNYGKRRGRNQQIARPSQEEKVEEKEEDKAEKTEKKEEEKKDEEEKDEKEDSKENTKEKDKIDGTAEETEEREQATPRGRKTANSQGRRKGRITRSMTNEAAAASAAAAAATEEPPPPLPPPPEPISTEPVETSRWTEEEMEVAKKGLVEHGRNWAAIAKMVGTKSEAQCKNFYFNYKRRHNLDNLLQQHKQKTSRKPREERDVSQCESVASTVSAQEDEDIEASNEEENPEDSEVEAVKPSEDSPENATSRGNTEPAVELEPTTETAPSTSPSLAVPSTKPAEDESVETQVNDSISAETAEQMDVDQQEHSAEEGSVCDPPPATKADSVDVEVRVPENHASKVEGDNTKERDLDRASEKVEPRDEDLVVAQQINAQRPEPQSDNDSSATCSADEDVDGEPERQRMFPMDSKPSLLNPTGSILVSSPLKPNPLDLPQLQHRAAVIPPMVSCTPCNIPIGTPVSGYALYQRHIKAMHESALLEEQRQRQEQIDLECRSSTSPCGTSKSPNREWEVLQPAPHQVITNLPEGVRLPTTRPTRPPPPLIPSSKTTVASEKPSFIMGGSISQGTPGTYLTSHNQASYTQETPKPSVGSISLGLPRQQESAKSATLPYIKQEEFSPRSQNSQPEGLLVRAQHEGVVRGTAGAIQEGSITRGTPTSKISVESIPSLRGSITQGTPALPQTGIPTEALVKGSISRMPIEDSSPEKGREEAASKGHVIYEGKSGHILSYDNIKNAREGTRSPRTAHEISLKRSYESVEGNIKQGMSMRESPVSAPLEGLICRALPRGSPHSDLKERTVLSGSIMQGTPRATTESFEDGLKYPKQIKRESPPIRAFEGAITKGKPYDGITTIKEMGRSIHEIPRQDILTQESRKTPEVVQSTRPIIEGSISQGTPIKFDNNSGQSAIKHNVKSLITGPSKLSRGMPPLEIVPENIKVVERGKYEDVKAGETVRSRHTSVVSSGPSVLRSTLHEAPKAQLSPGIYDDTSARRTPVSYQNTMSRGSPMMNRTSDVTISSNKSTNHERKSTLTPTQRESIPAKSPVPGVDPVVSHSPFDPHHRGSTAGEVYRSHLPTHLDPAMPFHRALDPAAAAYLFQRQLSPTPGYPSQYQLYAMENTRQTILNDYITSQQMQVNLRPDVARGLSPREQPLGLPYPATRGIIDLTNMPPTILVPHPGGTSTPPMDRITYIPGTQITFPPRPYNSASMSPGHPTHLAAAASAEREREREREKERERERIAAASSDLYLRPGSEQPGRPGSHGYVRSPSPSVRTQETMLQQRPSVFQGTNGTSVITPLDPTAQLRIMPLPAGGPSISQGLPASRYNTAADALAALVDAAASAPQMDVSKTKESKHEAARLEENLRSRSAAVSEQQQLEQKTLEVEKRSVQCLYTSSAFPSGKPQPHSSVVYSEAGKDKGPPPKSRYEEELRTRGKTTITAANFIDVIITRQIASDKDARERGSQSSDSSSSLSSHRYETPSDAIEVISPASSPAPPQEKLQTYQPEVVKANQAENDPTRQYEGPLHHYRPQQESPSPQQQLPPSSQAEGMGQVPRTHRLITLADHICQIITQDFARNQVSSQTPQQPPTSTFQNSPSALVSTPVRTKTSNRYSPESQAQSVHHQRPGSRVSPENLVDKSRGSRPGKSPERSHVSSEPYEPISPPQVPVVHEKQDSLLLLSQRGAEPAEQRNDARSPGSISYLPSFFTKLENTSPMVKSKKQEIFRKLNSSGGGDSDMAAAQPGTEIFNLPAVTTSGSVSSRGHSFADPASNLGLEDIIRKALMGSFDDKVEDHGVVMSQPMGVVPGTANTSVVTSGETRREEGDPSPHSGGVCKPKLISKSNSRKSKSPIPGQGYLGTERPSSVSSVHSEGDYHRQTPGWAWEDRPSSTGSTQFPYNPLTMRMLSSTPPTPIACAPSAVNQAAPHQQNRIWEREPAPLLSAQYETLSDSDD

B1: PPARγ LBD LBD (protein)
chain: DLRALAKHLYDSYIKSFPLTKAKARAILTGKTTDKSPFVIYDMNSLMMGEDKIKFKHITPLQEQSKEVAIRIFQGCQFRSVEAVQEITEYAKSIPGFVNLDLNDQVTLLKYGVHEIIYTMLASLMNKDGVLISEGQGFMTREFLKSLRKPFGDFMEPKFEFAVKFNALELDDSDLAIFIAVIILSGDRPGLLNVKPIEDIQDNLLQALELQLKLNHPESSQLFAKLLQKMTDLRQIVTEHVQLLQVIKKTETDMSLHPLLQEIYKD
For B1, the affinity, expressed as Kd, was 1400 nM.
